Data from IntAct's records for PubMed 18617892.

B1: Nuclear factor NF-kappa-B p100 subunit (Homo sapiens), Q00653 (parent)
chain: MESCYNPGLDGIIEYDDFKLNSSIVEPKEPAPETADGPYLVIVEQPKQRGFRFRYGCEGPSHGGLPGASSEKGRKTYPTVKICNYEGPAKIEVDLVTHSDPPRAHAHSLVGKQCSELGICAVSVGPKDMTAQFNNLGVLHVTKKNMMGTMIQKLQRQRLRSRPQGLTEAEQRELEQEAKELKKVMDLSIVRLRFSAFLRASDGSFSLPLKPVISQPIHDSKSPGASNLKISRMDKTAGSVRGGDEVYLLCDKVQKDDIEVRFYEDDENGWQAFGDFSPTDVHKQYAIVFRTPPYHKMKIERPVTVFLQLKRKRGGDVSDSKQFTYYPLVEDKEEVQRKRRKALPTFSQPFGGGSHMGGGSGGAAGGYGGAGGGGSLGFFPSSLAYSPYQSGAGPMGCYPGGGGGAQMAATVPSRDSGEEAAEPSAPSRTPQCEPQAPEMLQRAREYNARLFGLAQRSARALLDYGVTADARALLAGQRHLLTAQDENGDTPLHLAIIHGQTSVIEQIVYVIHHAQDLGVVNLTNHLHQTPLHLAVITGQTSVVSFLLRVGADPALLDRHGDSAMHLALRAGAGAPELLRALLQSGAPAVPQLLHMPDFEGLYPVHLAVRARSPECLDLLVDSGAEVEATERQGGRTALHLATEMEELGLVTHLVTKLRANVNARTFAGNTPLHLAAGLGYPTLTRLLLKAGADIHAENEEPLCPLPSPPTSDSDSDSEGPEKDTRSSFRGHTPLDLTCSTKVKTLLLNAAQNTMEPPLTPPSPAGPGLSLGDTALQNLEQLLDGPEAQGSWAELAERLGLRSLVDTYRQTTSPSGSLLRSYELAGGDLAGLLEALSDMGLEEGVRLLRGPETRDKLPSTAEVKEDSAYGSQSVEQEAEKLGPPPEPPGGLCHGHPQPQVH

Tests used:
fbw1a_human BTRC, Q9Y297 = variants of: B1; conditions: with fbw1a_human BTRC
Sequence of fbw1a_human BTRC, Q9Y297 (Q9Y297 whole entry): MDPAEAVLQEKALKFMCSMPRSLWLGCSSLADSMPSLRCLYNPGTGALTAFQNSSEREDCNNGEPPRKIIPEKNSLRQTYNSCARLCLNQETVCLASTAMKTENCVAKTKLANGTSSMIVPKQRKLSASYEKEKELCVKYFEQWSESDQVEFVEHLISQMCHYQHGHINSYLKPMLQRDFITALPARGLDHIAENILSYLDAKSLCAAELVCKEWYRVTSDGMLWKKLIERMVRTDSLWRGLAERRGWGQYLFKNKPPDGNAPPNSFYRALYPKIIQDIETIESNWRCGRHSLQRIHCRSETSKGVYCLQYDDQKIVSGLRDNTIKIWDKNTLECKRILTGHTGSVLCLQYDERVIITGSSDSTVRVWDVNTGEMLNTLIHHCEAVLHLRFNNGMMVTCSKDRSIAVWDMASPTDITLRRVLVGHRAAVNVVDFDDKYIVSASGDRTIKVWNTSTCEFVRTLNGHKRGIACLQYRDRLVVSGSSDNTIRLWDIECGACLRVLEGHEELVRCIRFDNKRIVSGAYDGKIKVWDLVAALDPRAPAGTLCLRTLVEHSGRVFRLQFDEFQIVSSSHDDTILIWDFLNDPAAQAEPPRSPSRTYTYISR

ubc_human UBC, P0CG48 = variants of: B1; conditions: with ubc_human UBC
Sequence of ubc_human UBC, P0CG48 (P0CG48 whole entry, looked up): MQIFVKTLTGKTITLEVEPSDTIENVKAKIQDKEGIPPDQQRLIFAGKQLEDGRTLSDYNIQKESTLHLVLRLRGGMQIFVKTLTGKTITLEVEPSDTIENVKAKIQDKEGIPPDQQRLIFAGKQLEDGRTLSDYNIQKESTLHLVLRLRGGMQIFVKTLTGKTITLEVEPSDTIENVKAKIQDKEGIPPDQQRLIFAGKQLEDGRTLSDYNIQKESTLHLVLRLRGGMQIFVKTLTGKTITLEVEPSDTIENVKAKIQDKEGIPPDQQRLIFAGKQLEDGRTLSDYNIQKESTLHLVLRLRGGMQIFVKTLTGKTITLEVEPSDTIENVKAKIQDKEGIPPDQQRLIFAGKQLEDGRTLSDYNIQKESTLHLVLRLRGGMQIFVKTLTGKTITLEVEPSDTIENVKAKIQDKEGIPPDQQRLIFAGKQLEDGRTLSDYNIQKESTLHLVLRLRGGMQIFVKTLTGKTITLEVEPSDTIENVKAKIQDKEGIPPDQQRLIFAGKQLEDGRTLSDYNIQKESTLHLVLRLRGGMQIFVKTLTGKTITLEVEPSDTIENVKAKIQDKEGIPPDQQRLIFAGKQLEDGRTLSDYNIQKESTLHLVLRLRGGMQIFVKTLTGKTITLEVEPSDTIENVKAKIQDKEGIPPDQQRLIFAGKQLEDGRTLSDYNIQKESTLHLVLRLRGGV

Variant | effect of a mutation on the interaction (fbw1a_human BTRC, Q9Y297) | effect of a mutation on the interaction (ubc_human UBC, P0CG48)
K298R | decreasing interaction | decreasing interaction
K863R | decreasing interaction | decreasing interaction
K90R | decreasing interaction | decreasing interaction
K689R | decreasing interaction | decreasing interaction
